Our source for the binding signal values is article PMC6555819, “Comprehensive study of nuclear receptor DNA binding provides a revised framework for understanding receptor specificity”.

To fix the notation:
B1: NRC3_wobSeed122_DR5_C28A_o1 (dsDNA)
DNA 1: GCGCTAGTTGGTCAGTAAAAGGTCACAAACCGGTCGGCGATTGACAGCGTAGAATGAAGG
DNA 2: CCTTCATTCTACGCTGTCAATCGCCGACCGGTTTGTGACCTTTTACTGACCAACTAGCGC
B2: NRC3_wobSeed110_DR4_C7A_o1 (dsDNA)
DNA 1: GCTCTGATAGGTCAACGATGGTCAGCTAATCTGCTAGCGATTGACAGCGTAGAATGAAGG
DNA 2: CCTTCATTCTACGCTGTCAATCGCTAGCAGATTAGCTGACCATCGTTGACCTATCAGAGC
B3: NRC3_wobSeed82_DR3_T21G_o1 (dsDNA)
DNA 1: GCATCGAAAGGTCGACGAGGGGAGTATACACCGTTTGCGATTGACAGCGTAGAATGAAGG
DNA 2: CCTTCATTCTACGCTGTCAATCGCAAACGGTGTATACTCCCCTCGTCGACCTTTCGATGC
B4: NRC3_wobSeed69_DR2_C6G_o1 (dsDNA)
DNA 1: GCAGTGAAAGTTCACTAGGTAACGTAAGATTCAGCTGCGATTGACAGCGTAGAATGAAGG
DNA 2: CCTTCATTCTACGCTGTCAATCGCAGCTGAATCTTACGTTACCTAGTGAACTTTCACTGC
B5: NRC3_wobSeed27_DR1_G7C_o1 (dsDNA)
DNA 1: GCACTCCGAGGACAAAGGTCAGAGCTACGCCAGTGAGCGATTGACAGCGTAGAATGAAGG
DNA 2: CCTTCATTCTACGCTGTCAATCGCTCACTGGCGTAGCTCTGACCTTTGTCCTCGGAGTGC
B6: NRC3_wobSeed74_DR3_A14C_o1 (dsDNA)
DNA 1: GCTCTAGTTGGTCCCGGAGGTCACACACGACGGGTAGCGATTGACAGCGTAGAATGAAGG
DNA 2: CCTTCATTCTACGCTGTCAATCGCTACCCGTCGTGTGTGACCTCCGGGACCAACTAGAGC
B7: NRC3_wobSeed74_DR3_G17T_o1 (dsDNA)
DNA 1: GCTCTAGTTGGTCACGTAGGTCACACACGACGGGTAGCGATTGACAGCGTAGAATGAAGG
DNA 2: CCTTCATTCTACGCTGTCAATCGCTACCCGTCGTGTGTGACCTACGTGACCAACTAGAGC
B8: NRC3_wobSeed5_DR0_C24G_o1 (dsDNA)
DNA 1: GCCCTTACGGGTCAAGGTTATAGGACGGGTGGTACGGCGATTGACAGCGTAGAATGAAGG
DNA 2: CCTTCATTCTACGCTGTCAATCGCCGTACCACCCGTCCTATAACCTTGACCCGTAAGGGC
B9: NRC3_wobSeed5_DR0_T6A_o1 (dsDNA)
DNA 1: GCCCTAACGGGTCAAGGTTATAGCACGGGTGGTACGGCGATTGACAGCGTAGAATGAAGG
DNA 2: CCTTCATTCTACGCTGTCAATCGCCGTACCACCCGTGCTATAACCTTGACCCGTTAGGGC
B10: NRC3_wobSeed4_DR0_T22C_o1 (dsDNA)
DNA 1: GCCCTACTGGGCCAAGGTCATCGATCAGTCAAAGCAGCGATTGACAGCGTAGAATGAAGG
DNA 2: CCTTCATTCTACGCTGTCAATCGCTGCTTTGACTGATCGATGACCTTGGCCCAGTAGGGC
B11: NRC3_wobSeed90_DR3_A28C_o1 (dsDNA)
DNA 1: GCCATACAGGGTCAGCTAGGCCAGAGTCGGGACGGCGCGATTGACAGCGTAGAATGAAGG
DNA 2: CCTTCATTCTACGCTGTCAATCGCGCCGTCCCGACTCTGGCCTAGCTGACCCTGTATGGC
B12: NRC3_wobSeed61_DR2_G4C_o1 (dsDNA)
DNA 1: GCCCTCCAAGGTCAGCAGGTCAGTGAAAGCGACGTGGCGATTGACAGCGTAGAATGAAGG
DNA 2: CCTTCATTCTACGCTGTCAATCGCCACGTCGCTTTCACTGACCTGCTGACCTTGGAGGGC
B13: NRC3_wobSeed61_DR2_G10T_o1 (dsDNA)
DNA 1: GCCGTCCAATGTCAGCAGGTCAGTGAAAGCGACGTGGCGATTGACAGCGTAGAATGAAGG
DNA 2: CCTTCATTCTACGCTGTCAATCGCCACGTCGCTTTCACTGACCTGCTGACATTGGACGGC
B14: NRC3_wobSeed144_DR5_T19G_o1 (dsDNA)
DNA 1: GCTCGAGTAGGTTACCAAGGGGGCATTCAGCTTTCTGCGATTGACAGCGTAGAATGAAGG
DNA 2: CCTTCATTCTACGCTGTCAATCGCAGAAAGCTGAATGCCCCCTTGGTAACCTACTCGAGC
B15: NRC3_wobSeed81_DR3_C22G_o1 (dsDNA)
DNA 1: GCATCTCTAGGTAACCAAGTTGAGTGAATGCCGAACGCGATTGACAGCGTAGAATGAAGG
DNA 2: CCTTCATTCTACGCTGTCAATCGCGTTCGGCATTCACTCAACTTGGTTACCTAGAGATGC
B16: NRC3_wobSeed6_DR0_T22A_o1 (dsDNA)
DNA 1: GCCCTAGCAGGCCAGGGTCACACAAGCATTTCGCTTGCGATTGACAGCGTAGAATGAAGG
DNA 2: CCTTCATTCTACGCTGTCAATCGCAAGCGAAATGCTTGTGTGACCCTGGCCTGCTAGGGC
B17: NRC3_wobSeed137_DR5_A14T_o1 (dsDNA)
DNA 1: GCATATGTAGGTTTCATCCGGGTCATTCAGGCTATGGCGATTGACAGCGTAGAATGAAGG
DNA 2: CCTTCATTCTACGCTGTCAATCGCCATAGCCTGAATGACCCGGATGAAACCTACATATGC
B18: NRC3_wobSeed99_DR4_T5C_o1 (dsDNA)
DNA 1: GCTCCCGGAGGACACGAAAGGTCAGAGCTCGACATCGCGATTGACAGCGTAGAATGAAGG
DNA 2: CCTTCATTCTACGCTGTCAATCGCGATGTCGAGCTCTGACCTTTCGTGTCCTCCGGGAGC
B19: NRC3_wobSeed46_DR1_A15T_o1 (dsDNA)
DNA 1: GCTTACCAAGGTGATAGGTCGTTGATGCACGCCTTGGCGATTGACAGCGTAGAATGAAGG
DNA 2: CCTTCATTCTACGCTGTCAATCGCCAAGGCGTGCATCAACGACCTATCACCTTGGTAAGC
B20: NRC3_wobSeed142_DR5_A5G_o1 (dsDNA)
DNA 1: GCATGCCAAGGTGATCGTGAGGTCGTTGATACTAACGCGATTGACAGCGTAGAATGAAGG
DNA 2: CCTTCATTCTACGCTGTCAATCGCGTTAGTATCAACGACCTCACGATCACCTTGGCATGC
B21: NRC3_wobSeed21_DR0_T5A_o1 (dsDNA)
DNA 1: GCCGACAAAGTTCAAGGTAACGTAACAGAAAGCAGCGCGATTGACAGCGTAGAATGAAGG
DNA 2: CCTTCATTCTACGCTGTCAATCGCGCTGCTTTCTGTTACGTTACCTTGAACTTTGTCGGC
B22: NRC3_wobSeed88_DR3_T25A_o1 (dsDNA)
DNA 1: GCTAGCCTAGGTCATGCGGGCCAGAATAGTGTCGGCGCGATTGACAGCGTAGAATGAAGG
DNA 2: CCTTCATTCTACGCTGTCAATCGCGCCGACACTATTCTGGCCCGCATGACCTAGGCTAGC
B23: NRC3_wobSeed88_DR3_A28G_o1 (dsDNA)
DNA 1: GCTAGCCTAGGTCATGCGGGCCAGTATGGTGTCGGCGCGATTGACAGCGTAGAATGAAGG
DNA 2: CCTTCATTCTACGCTGTCAATCGCGCCGACACCATACTGGCCCGCATGACCTAGGCTAGC
B24: NRC3_wobSeed133_DR5_G21T_o1 (dsDNA)
DNA 1: GCCGTCCAAGGTCAATGCTATGTCAGTGAAAGCATTGCGATTGACAGCGTAGAATGAAGG
DNA 2: CCTTCATTCTACGCTGTCAATCGCAATGCTTTCACTGACATAGCATTGACCTTGGACGGC
B25: NRC3_wobSeed100_DR4_A14C_o1 (dsDNA)
DNA 1: GCCCTACTGGGCCCCGAAAGGTCATTGATTCAGTGAGCGATTGACAGCGTAGAATGAAGG
DNA 2: CCTTCATTCTACGCTGTCAATCGCTCACTGAATCAATGACCTTTCGGGGCCCAGTAGGGC
B26: NRC3_wobSeed119_DR4_G27A_o1 (dsDNA)
DNA 1: GCGGAACGAGGGCATTCGAGTTGATAACATGGCGATGCGATTGACAGCGTAGAATGAAGG
DNA 2: CCTTCATTCTACGCTGTCAATCGCATCGCCATGTTATCAACTCGAATGCCCTCGTTCCGC
B27: NRC3_wobSeed86_DR3_T8G_o1 (dsDNA)
DNA 1: GCGCTGCGAGGTCAGGTTGGTCAGCTAACGGGTACGGCGATTGACAGCGTAGAATGAAGG
DNA 2: CCTTCATTCTACGCTGTCAATCGCCGTACCCGTTAGCTGACCAACCTGACCTCGCAGCGC
B28: NRC3_wobSeed114_DR4_G10T_o1 (dsDNA)
DNA 1: GCAATACAGTGTCATCGTAGGCCAGAGTACGCACAGGCGATTGACAGCGTAGAATGAAGG
DNA 2: CCTTCATTCTACGCTGTCAATCGCCTGTGCGTACTCTGGCCTACGATGACACTGTATTGC
B29: NRC3_wobSeed125_DR5_G21T_o1 (dsDNA)
DNA 1: GCCCTTACGGGTCACTGACATGTTATAGCATTTGGAGCGATTGACAGCGTAGAATGAAGG
DNA 2: CCTTCATTCTACGCTGTCAATCGCTCCAAATGCTATAACATGTCAGTGACCCGTAAGGGC
B30: NRC3_wobSeed125_DR5_T6C_o1 (dsDNA)
DNA 1: GCCCTCACGGGTCACTGACAGGTTATAGCATTTGGAGCGATTGACAGCGTAGAATGAAGG
DNA 2: CCTTCATTCTACGCTGTCAATCGCTCCAAATGCTATAACCTGTCAGTGACCCGTGAGGGC
B31: NRC3_wobSeed98_DR4_T12C_o1 (dsDNA)
DNA 1: GCACTAGTTGGCCAGCTGAGGTCACACACAATTCGGGCGATTGACAGCGTAGAATGAAGG
DNA 2: CCTTCATTCTACGCTGTCAATCGCCCGAATTGTGTGTGACCTCAGCTGGCCAACTAGTGC

Sequence of VDR:RXRa (P11473 whole entry, chain 1 of 2): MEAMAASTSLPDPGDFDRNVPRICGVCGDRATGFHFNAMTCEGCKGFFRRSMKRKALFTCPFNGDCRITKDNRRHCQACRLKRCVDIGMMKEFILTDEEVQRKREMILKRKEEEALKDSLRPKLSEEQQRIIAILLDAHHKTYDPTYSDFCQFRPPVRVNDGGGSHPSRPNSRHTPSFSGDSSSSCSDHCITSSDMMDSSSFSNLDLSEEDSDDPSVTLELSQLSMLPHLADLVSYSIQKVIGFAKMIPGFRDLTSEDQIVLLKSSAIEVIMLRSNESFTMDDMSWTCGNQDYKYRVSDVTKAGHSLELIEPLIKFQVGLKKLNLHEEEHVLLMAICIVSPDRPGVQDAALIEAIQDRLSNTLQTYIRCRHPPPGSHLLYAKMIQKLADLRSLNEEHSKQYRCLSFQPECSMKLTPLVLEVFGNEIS
Sequence of VDR:RXRa (P19793 whole entry, chain 2 of 2): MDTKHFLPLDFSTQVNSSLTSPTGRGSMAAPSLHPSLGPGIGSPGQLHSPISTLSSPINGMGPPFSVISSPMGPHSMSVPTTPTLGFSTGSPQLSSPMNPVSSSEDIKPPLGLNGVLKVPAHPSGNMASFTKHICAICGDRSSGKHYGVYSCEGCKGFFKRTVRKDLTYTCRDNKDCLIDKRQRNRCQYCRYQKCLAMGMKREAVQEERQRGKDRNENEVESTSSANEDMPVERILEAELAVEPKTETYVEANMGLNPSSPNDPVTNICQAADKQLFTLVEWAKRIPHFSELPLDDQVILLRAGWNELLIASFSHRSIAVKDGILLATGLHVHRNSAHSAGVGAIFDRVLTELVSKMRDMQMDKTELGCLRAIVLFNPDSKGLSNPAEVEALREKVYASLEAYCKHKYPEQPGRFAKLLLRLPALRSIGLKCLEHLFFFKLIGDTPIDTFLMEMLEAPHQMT

The series concerns the target VDR:RXRa (Homo sapiens, UniProt P11473;P19793 full;full). Put plainly: no ligand; PBM; 270 nM : 90 nM RXRa; PBS pH 7.4, 2% milk, 0.02% Triton X-100, 1 mM DTT, BSA, 0.4 mg/ml salmon testes DNA. Conditions: tags: His kept;His cleaved; copies: 1;1; label: surface-attached array probe. In short, it runs like this: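 Binding z-scores were set against random background probes. The data came from custom Agilent 4×180K protein-binding microarrays carrying double-stranded probes with 34-nt variable regions, incubated 1 h with ligand-free nuclear receptor dimers. Partner-specific antibodies detected binding, and scanned fluorescence was regression-normalized.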
On to B1, for which the binding signal was 3.68 PBM z-score against 500 random probes.

Regarding B2, the binding signal was 3.1 PBM z-score against 500 random probes.

Turning to B3, the binding signal is 3.65 PBM z-score against 500 random probes. To B4 belongs 3.33 PBM z-score against 500 random probes; to B5, 3.7 PBM z-score against 500 random probes; to B6, 3.63 PBM z-score against 500 random probes. Then B7, with 3.15 PBM z-score against 500 random probes; and B8, with 3.5 PBM z-score against 500 random probes.

B9: the binding signal was 3.06 PBM z-score against 500 random probes. To B10 belongs 3.17 PBM z-score against 500 random probes; to B11, 3.58 PBM z-score against 500 random probes.

As to B12, the binding signal is 3.8 PBM z-score against 500 random probes.

As for B13, the binding signal was 0.44 PBM z-score against 500 random probes. On to B14, for which the binding signal is 3.47 PBM z-score against 500 random probes. Take B15: the binding signal was 0.49 PBM z-score against 500 random probes. Turning to B16, the binding signal is 3.03 PBM z-score against 500 random probes. To B17 belongs 3.52 PBM z-score against 500 random probes. For B18, the binding signal is 3.26 PBM z-score against 500 random probes. Then B19, with 0.48 PBM z-score against 500 random probes; and B20, with 3.08 PBM z-score against 500 random probes. To B21 belongs 3.74 PBM z-score against 500 random probes; to B22, 3.12 PBM z-score against 500 random probes; to B23, 3 PBM z-score against 500 random probes. Turning to B24, the binding signal was 3.76 PBM z-score against 500 random probes. Then B25, with 3.44 PBM z-score against 500 random probes; and B26, with 3.42 PBM z-score against 500 random probes; and B27, with 3.78 PBM z-score against 500 random probes. Then B28, with 0.5 PBM z-score against 500 random probes; and B29, with 3.4 PBM z-score against 500 random probes; and B30, with 3.38 PBM z-score against 500 random probes.

Regarding B31, the binding signal was 3.6 PBM z-score against 500 random probes.
